Reference: doi:10.1101/2022.07.27.501708 (bioRxiv, 2022)

B1: EH3 IgG (antibody, V domains shown)
VH: EVQLVESGGGLVQPGGSLRLSCAASGITVSSNYMTWVRQAPGKGLEWVSVIYSGGSTFYADSVRGRFTISRDNSKNTLYLQMNSLRAEDTAVYYCARDLEMAGAFDIWGQGTMVTVSS
VL: not shown
B2: EH8 IgG (antibody, V domains shown)
VH: QVQLVQSGAEVKKPGASVKVSCKASGYTFSSYGISWVRQAPGQGLEWMGWISPYNGNTKYPQKFQGRVTMTTDTSTNTAYMELRSLRSDDTAVYYCARDLELGGGFDYWGQGTLVTVSS
VL: QSALTQPASVSGSPGQSITISCTGTSSDVGSYNLVSWYQQHPDKAPKFMIYEGTKRPSGVSNRFSGSKSGNTASLTISGLQAEDEADYYCCSYAGNSTWVFGGGTKLTVL

Target: SARS-CoV-2 WT RBD (SPR analyte) (SARS-CoV-2, Wuhan-Hu-1, UniProt P0DTC2)
Assay: SPR

Row | Binder | Kd | kon
1 | B1 | 0.83 to 2.79 nM | 83200 to 274000 M⁻¹ s⁻¹
2 | B2 | 1.3 to 7.22 nM | 403000 to 837000 M⁻¹ s⁻¹
